Here are results for 2 molecules from patent publication US20140179604A1 (U S A REPRESENTED BY THE DEPARTMENT OF VETERANS AFFAIRS, published 2014).

Read-outs that look alike come from different tables or passages of the source. Non-standard residues stand in square brackets, D forms with d. No end group written: not given here. *: point of attachment. NMeY = CN[C@@H](Cc1ccc(O)cc1)C(=O)O; Agmatine = N=C(N)NCCCCN*; Nle = CCCC[C@H](N)C(=O)O; Orn = NCCC[C@H](N)C(=O)O; Abu = CC[C@H](N)C(=O)O; GABA = NCCCC(=O)O

Test [1] addresses T1, GHRH receptor (membrane receptors of human anterior pituitary cells) (human), Q02643.
T1 chain: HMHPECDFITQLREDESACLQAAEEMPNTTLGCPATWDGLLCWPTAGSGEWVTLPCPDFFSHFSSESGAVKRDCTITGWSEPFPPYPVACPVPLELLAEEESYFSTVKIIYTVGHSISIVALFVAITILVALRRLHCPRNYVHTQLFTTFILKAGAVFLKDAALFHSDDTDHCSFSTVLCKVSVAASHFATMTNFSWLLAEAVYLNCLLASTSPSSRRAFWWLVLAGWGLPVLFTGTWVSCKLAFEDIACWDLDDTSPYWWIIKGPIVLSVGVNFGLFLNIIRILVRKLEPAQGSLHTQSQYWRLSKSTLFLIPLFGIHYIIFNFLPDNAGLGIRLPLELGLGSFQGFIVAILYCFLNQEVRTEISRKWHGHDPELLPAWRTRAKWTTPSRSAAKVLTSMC
The test can be described thus: competition with 125I-JV-1-42, human pituitary membranes.

Test [2] deals with T2, GHRH receptor (membrane receptors of human anterior pituitary cells) (human) (UniProt Q02643).
T2 sequence (looked up): T1 chain
The test is described as above.

The target in test [3] is T2, GHRH receptor (membrane receptors of human anterior pituitary cells) (human). The description is as above. This is another data set of the same source.
The target is the same in test [4]. The test can be described thus: competition with 125I-[His1,Nle27]hGHRH(1-32)NH2, human pituitary membranes.

B1: P-29703 [N-Me-Tyr^1, Gln^8, Orn^12, Abu^15, Orn^21, Nle^27, Gln-Gab^30]hGHRH(1-30)NH2 (peptide)
chain: [NMeY]ADAIFTQSYR[Orn]VL[Abu]QLSAR[Orn]LLQDI[Nle]SRQ[GABA]-NH2
modifications: N-terminus assumed
SMILES: CCCC[C@H](NC(=O)[C@@H](NC(=O)[C@H](CC(=O)O)NC(=O)[C@H](CCC(N)=O)NC(=O)[C@H](CC(C)C)NC(=O)[C@H](CC(C)C)NC(=O)[C@H](CCCN)NC(=O)[C@H](CCCNC(=N)N)NC(=O)[C@H](C)NC(=O)[C@H](CO)NC(=O)[C@H](CC(C)C)NC(=O)[C@H](CCC(N)=O)NC(=O)[C@H](CC)NC(=O)[C@H](CC(C)C)NC(=O)[C@@H](NC(=O)[C@H](CCCN)NC(=O)[C@H](CCCNC(=N)N)NC(=O)[C@H](Cc1ccc(O)cc1)NC(=O)[C@H](CO)NC(=O)[C@H](CCC(N)=O)NC(=O)[C@@H](NC(=O)[C@H](Cc1ccccc1)NC(=O)[C@@H](NC(=O)[C@H](C)NC(=O)[C@H](CC(=O)O)NC(=O)[C@H](C)NC(=O)[C@H](Cc1ccc(O)cc1)NC)[C@@H](C)CC)[C@@H](C)O)C(C)C)[C@@H](C)CC)C(=O)N[C@@H](CO)C(=O)N[C@@H](CCCNC(=N)N)C(=O)N[C@@H](CCC(N)=O)C(=O)NCCCC(N)=O
Broadly, the IC50 is the concentration needed to halve the response being measured. High values mean a need for much substance, low ones inhibition by little substance. In test [1], B1 came in with an IC50 of 1.22 nM and a Relative affinity (Binding potency) vs JI-38 of 3.57 JI-38 = 1.

In test [2], [NMeY]ADAIFTQSYR[Orn]VL[Abu]QLSAR[Orn]LLQDI[Nle]D[Agmatine] (peptide, from a related filing, not fully specified (C-terminus)) [P-20356 [N-Me-Tyr^1, Gln^8, Orn^12, Abu^15, Orn^21, Nle^27, Asp^28, Agm^29]hGHRH(1-29)NH2] registered a 50% inhibitory concentration (IC50) of 0.27 nM and a Relative affinity (Binding potency) vs JI-38 of 16.1 JI-38 = 1. In test [3], this molecule showed an IC50 of 0.01 nM, a Relative affinity (Binding potency) vs GHRH (GHRH(1-29) = 1) of 406 and a Relative affinity (Binding potency) vs JI-38 of 171 JI-38 = 1. Besides, in test [4], the half-inhibitory concentration (IC50) was found to be 1.02 nM, the Relative affinity (Binding potency) compared to JI-38 stood at 2.69 JI-38 = 1 and the Relative affinity (Binding potency) compared to hGHRH(1-29) (hGHRH(1-29)NH2 = 1) came out at 7.5.
